Test results: PMC8024323, “Drosophila TNFRs Grindelwald and Wengen bind Eiger with different affinities and promote distinct cellular functions” (Nature Communications, 2021)

B1: Grnd^30–97 (extracellular domain of Grindelwald) [Drosophila melanogaster] / Egr^146–409 (extracellular portion of Eiger, His6-tagged) [Drosophila melanogaster] (parent complex)
chain 1: GESRDCHGTICHPVNEFCYVATERCHPCIEVCNNQTHNYDAFLCAKECSAYKTFEPLKAEMLDIQNTQ
chain 2: GADYEDYTDMLNKLNNAHTGTTPTSETTAEGEGETDSASSASNDDNVFDDFTSYNAHKKKQERKSRSIADVRNEEQNIQGNHTELQEKSSNEATSKESPAPLHHRRRMHSRHRHLLVRKARSEDSRPAAHFHLSSRRRHQGSMGYHGDMYIGNDNERNSYQGHFQTRDGVLTVTNTGLYYVYAQICYNNSHDQNGFIVFQGDTPFLQCLNTVPTNMPHKVHTCHTSGLIHLERNERIHLKDIHNDRNAVLREGNNRSYFGIFKV

Variants of: B1
Assay: ITC; parent: 30.8 nM

Kd [µM]	Variant
1.3	chain 1 GESRDCHGTICHPVNEFCYVATARCHPCIEVCNNQTHNYDAFLCAKECSAYKTFEPLKAEMLDIQNTQ [chain 1 E23A]
4.5	chain 1 GESRDCHGTICHPVNEFCYVATERCHPCIEVCNNQTHAYDAFLCAKECSAYKTFEPLKAEMLDIQNTQ [chain 1 N38A]
4.8	chain 1 GESRDCHGTICHPVNEFCYVATERCHPCIEVCNNQTANYDAFLCAKECSAYKTFEPLKAEMLDIQNTQ [chain 1 H37A]
